Data: US20210317178A1 (D AND D PHARMATECH, published 2021)
Positions of bridges follow the written chain, without caps; N, C: chain ends. Non-standard residues stand in square brackets, D forms with d. No end group written: not given here. tri‑branched mPEG‑MAL 50 kDa = tri-branched maleimide-activated monomethoxy PEG, 50 kDa; Aib = CC(C)(N)C(=O)O

Tests used:
human GLP-1 receptor = human GLP-1 receptor (human, UniProt P43220 24-463); assay: cell-based or functional assay
[1] = target: human glucagon receptor (GCGR) (human, UniProt P47871 26-477); assay: cell-based or functional assay
Chain of human glucagon receptor (GCGR) (P47871 26-477): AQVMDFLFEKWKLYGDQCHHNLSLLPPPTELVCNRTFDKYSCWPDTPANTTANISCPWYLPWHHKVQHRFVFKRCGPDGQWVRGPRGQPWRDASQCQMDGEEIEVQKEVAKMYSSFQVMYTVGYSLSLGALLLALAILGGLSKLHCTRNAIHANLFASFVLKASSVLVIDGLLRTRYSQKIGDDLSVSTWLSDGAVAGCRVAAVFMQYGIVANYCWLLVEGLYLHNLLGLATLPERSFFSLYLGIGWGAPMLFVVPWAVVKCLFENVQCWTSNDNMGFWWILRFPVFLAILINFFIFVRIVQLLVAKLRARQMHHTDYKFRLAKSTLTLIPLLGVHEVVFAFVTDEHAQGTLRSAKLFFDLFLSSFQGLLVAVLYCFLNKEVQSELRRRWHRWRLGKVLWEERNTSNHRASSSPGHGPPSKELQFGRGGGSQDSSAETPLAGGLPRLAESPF

Binder | EC50 of GLP-1 receptor (nM); cAMP (luciferase reporter) in HEK293/CRE-Luc cells (human GLP-1 receptor) | EC50 of glucagon receptor (GCGR) (nM); cAMP in CHO-K1 cells [1]
H[Aib]QGTFTSDYSKYLDEQAAKEFVQWLMNTC(tri‑branched mPEG‑MAL 50 kDa) (lactam 16-20) [conjugate of Example 2 (polypeptide of SEQ ID NO. 2 bound to tri-branched mPEG-MAL, MW 50 kDa)] | 2.12 nM | 47 nM
H[Aib]QGTFTSDYSKYLDEQAAKEFVQWLMNTC (lactam 16-20) [polypeptide of Example 1 (polypeptide into which cysteine was introduced, SEQ ID NO. 2)] | 0.13 nM | 38.6 nM
